Among the data in article PMC11257196 are percent bound and percent released from HSA in the first 50 h values, retold here.

This experiment concerns the target human serum albumin (human) (UniProt P02768). Nature of the experiment: ultrafiltration.

In the case of “interleukin-1 receptor antagonist in fusion to albumin binding domain (IL-1Ra-ABD) (from UniProt P18510 26-177)”, the percent bound was 78% and the percent released from HSA in the first 50 h came out at 80%.
